Reference: patent US20120308566A1

Columns and labels:
[1] = target: chimera L; assay: Bio-Plex titration on His-captured chimera; bold cell = binding criterion not met
[2] = target: Human IL-17RA full-length expressed on the surface of cells (human) (UniProt Q96F46); assay: cell-based or functional assay

Row | Binder | EC50 as fitted, in a bold cell (binding criterion not met) [1] [pM] | % inhibition of IL-6 production, IL-17A/HFF bioassay, supernatant 19 (incl. AMH23), 1:4 dilution [2] [%] | % inhibition of IL-6 production, IL-17A/HFF bioassay, supernatant 19 (incl. AMH23), 1:32 [2] [%] | % inhibition of IL-6 production, repeat IL-17A/HFF bioassay, supernatant 19 (incl. AMH23), 1:4 [2] [%] | % inhibition of IL-6 production, repeat IL-17A/HFF bioassay, supernatant 19 (incl. AMH23), 1:32 [2] [%] | % inhibition of IL-6 production, repeat IL-17A/HFF bioassay, supernatant 19 (incl. AMH23), 1:128 [2] [%] | % inhibition of IL-6 production, repeat IL-17A/HFF bioassay, supernatant 19 (incl. AMH23), 1:512 [2] [%]
1 | AMH26/AML26 (antibody, IgG2, V domains shown) VH: QVQLVESGGGLVKPGGSLRLSCAASGFTFSDYYMSWIRQAPGKGLEWVSYISSSGSTIYYADSVKGRFTISRDNAKNSLYLQMNSLRAEDTAVYYCARDRTYYFGSGSYEGMDVWGQGTTVTVSS VL: EILMTQSPATLSVSPGERATLSCRASQSVYSNLAWYQQKPGQAPRLLISGASTRATGIPARFSGSGSGTEFTLTISSLQSEDFAVYYCQQYYNWPWTFGQGTKVEIK | 6 | – | – | – | – | – | –
2 | AMH23/AML23 (antibody, part only; not given: light variable domain, version unclear, V domains shown, part only) VH: QVQLQESGPGLVKPSETLSLTCTVSGGSISSYYWSWIRQPAGKRLEWIGRIYPSGRTNYNPSLKSRVTMSVDTSKNQFSLKLSSVTAADTAVYYCAREAYELQLGLYYYYGMDVWGQGTPVTVSS | – | 79 | 72 | 86 | 76 | 67 | 50
